US5098841A, “Process for the preparation of hydroxy acids” (CIBA-GEIGY Corporation, priority 1988, dated 1992)

What was measured:
[1] = Specific activity of commercially available dehydrogenases based on pyruvate; type: biochemical; details: substrate pyruvate
Source text: (§1) The continuous reaction method, especially in an enzyme membrane reactor, is preferred for both processes.
(§2) U--unit of enzyme activity (under defined reaction conditions, 1 U produces a substance conversion of 1 μmol/min)

[2] = Specific activity of commercially available dehydrogenases based on 2-keto-4-phenylbutyric acid; type: biochemical; details: substrate 2-keto-4-phenylbutyric acid
Source text: as §1, §2

Substance: L-LDH bovine heart Fluka 61310: commercially available L-lactate dehydrogenase from bovine heart, Fluka 61310
- U/mg protein based on pyruvate [1]: 300 U/mg protein
- U/mg protein based on 2-keto-4-phenylbutyric acid [2]: 0.07 U/mg protein
